Consider 2 substances from article PMC3762824.

Assay [1] deals with Argonaute 2 (human (endogenous in U937, U1, J1.1, HEK293T)) (UniProt Q9UKV8).
Assay [2] has the same target. The source holds these as a separate data set.

Chain of UniProt Q9UKV8 (Q9UKV8 whole entry): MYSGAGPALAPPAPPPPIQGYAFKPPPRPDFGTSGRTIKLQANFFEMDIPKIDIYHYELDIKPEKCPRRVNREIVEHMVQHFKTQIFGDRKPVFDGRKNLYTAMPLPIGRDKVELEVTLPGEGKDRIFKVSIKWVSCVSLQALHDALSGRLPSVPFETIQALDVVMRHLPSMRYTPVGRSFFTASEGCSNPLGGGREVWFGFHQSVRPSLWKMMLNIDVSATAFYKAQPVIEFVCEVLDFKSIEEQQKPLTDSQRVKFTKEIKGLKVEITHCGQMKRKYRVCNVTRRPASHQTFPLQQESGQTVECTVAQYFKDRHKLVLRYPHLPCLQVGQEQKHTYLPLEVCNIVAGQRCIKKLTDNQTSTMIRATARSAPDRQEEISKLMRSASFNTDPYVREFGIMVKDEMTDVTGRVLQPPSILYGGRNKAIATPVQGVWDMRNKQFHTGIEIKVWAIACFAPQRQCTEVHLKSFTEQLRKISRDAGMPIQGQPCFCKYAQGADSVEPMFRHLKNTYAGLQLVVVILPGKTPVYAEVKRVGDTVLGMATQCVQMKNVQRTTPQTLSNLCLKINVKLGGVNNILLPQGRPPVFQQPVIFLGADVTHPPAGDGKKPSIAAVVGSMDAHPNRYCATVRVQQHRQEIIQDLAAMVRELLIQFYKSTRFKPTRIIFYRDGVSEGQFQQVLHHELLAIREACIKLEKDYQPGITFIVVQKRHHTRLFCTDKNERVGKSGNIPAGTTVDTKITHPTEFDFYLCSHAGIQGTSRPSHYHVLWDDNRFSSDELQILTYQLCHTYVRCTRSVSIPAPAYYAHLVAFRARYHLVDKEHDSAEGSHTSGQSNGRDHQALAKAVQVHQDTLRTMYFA

Consider “Nef-EYFP fusion protein (natural protein)”, for which, in assay [1], the slicer assay: cleavage of 32P-labelled let-7a RNA by Ago2 immunoprecipitates from U937/Nef-EYFP cells compared to U937/EYFP cells was under 50%.

In turn, wild type Nef (natural protein) gave an RLuc-let7a reporter luciferase activity against the empty vector, U937 or HEK293T cells co-transfected with the Nef expression vector in assay [2] of 70%.
